Measured values reported in PMC8287938, “Identification and structural analysis of the Schizosaccharomyces pombe SMN complex” (Nucleic Acids Research, 2021).
“And” between values parts separate entries of the source, which are not always exact repeats. Equal values may be shown once.

Tests used:
[1] = target: SpSMN/SpG2^ΔN80/SpG6/SpG7/SpG8^Δ35–58 complex (S. pombe) (UniProt Q09808); experiment: SEC-SAXS; full length SpSMN complexes at various concentrations; molecular weight against the standard SpSMNΔ36–119S130D/SpG2ΔN80
[2] = target: the molecule itself; experiment: SEC-SAXS; low concentrations (peak concentrations 5.8–16 μM); Superdex 200 10/300, 150 mM NaCl, 20 mM HEPES, 1 mM DTT, pH 7.5, 20°C
[3] = target: the molecule itself; experiment: SEC-SAXS; full length SpSMN complexes at various concentrations; molecular weight against the standard SpSMNΔ36–119S130D/SpG2ΔN80
[4] = target: the molecule itself; experiment: SEC; gel filtration chromatography of MBP-YG-domain 252–284 fusion proteins
[5] = target: T1, HsG7^46–131 (human, UniProt Q9H840 46-131); experiment: crystal structure; HsG6 1–92/HsG7 46–131/HsG8 190–230, 1.52 Å, PDB 7BBL; details: both partners purified
T1 construct: human Gemin7, residues 46-131 (residues 47-131 in the model); also called human Gemin7 46-131; His6-HsG7^46–131; source: E. coli BL21(DE3), co-expressed with HsG6 1-92, purified
T1 sequence (looked up): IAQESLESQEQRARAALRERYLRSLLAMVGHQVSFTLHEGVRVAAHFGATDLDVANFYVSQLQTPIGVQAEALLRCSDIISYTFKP

Molecule: SpSMN/SpG2^ΔN80/SpG6/SpG7/SpG8^Δ35–58 complex (from UniProt Q09808 1-152; P0CU08 81-235)
- stoichiometry N [1]: 4

B1: SpSMN^Δ36–119S130D/SpG2^ΔN80 complex (complex, S. pombe)
chain 1: MDQSQKEVWDDSELRNAFETALHEFKKYHSIEAKGYDETYKKLIMDWYYAGYYTGLAEGLAKSEQRKD
chain 2: RKLEIEAGKKSFDPFLRYLLNIIDKEGERLEQYMESSSLDASILPKNLQQWRVYIEHKAPCWAILAVVDLATVLEILESLSSWLEKDAIDLQSQWIFCFCYKLPELLNGEDISTLRSVLKSLRSTHTSFPALQMSASALQAVLVYRYGQKDLFQT
notes: Gemin2 of Schizosaccharomyces pombe (SpG2) lacking the N-terminus (ΔN80); also called S130D mutant; source: E. coli BL21(DE3), co-expressed (SpSMNΔ36–119S130D/His6-SpG2ΔN80), purified (Ni-NTA, TEV, dialysis); not shown: His6, N-terminal, cleaved
- stoichiometry N [2]: 2

B2: SpSMN/SpG2^ΔN80 complex (complex, S. pombe)
chain 1: MDQSQKEVWDDSELRNAFETALHEFKKYHSIEAKGGVSDPDSRLDGEKLISAARTEESISKLEEGEQMINQQTETTLEGDTHIQQFADNKGLSDEKPETRAAETHQEFMEVPPPIRGLTYDETYKKLIMSWYYAGYYTGLAEGLAKSEQRKD
chain 2: RKLEIEAGKKSFDPFLRYLLNIIDKEGERLEQYMESSSLDASILPKNLQQWRVYIEHKAPCWAILAVVDLATVLEILESLSSWLEKDAIDLQSQWIFCFCYKLPELLNGEDISTLRSVLKSLRSTHTSFPALQMSASALQAVLVYRYGQKDLFQT
notes: SMN of Schizosaccharomyces pombe (SpSMN); Gemin2 of Schizosaccharomyces pombe (SpG2) lacking the N-terminus (ΔN80); source: E. coli BL21(DE3), co-expressed (SpSMN/His6-SpG2ΔN80), purified (Ni-NTA, TEV, dialysis); not shown: His6, N-terminal, cleaved
- stoichiometry N [3]: 6 and 8

B3: SpSMN^Δ36–119A134E/SpG2^ΔN80 complex (complex, S. pombe)
chain 1: MDQSQKEVWDDSELRNAFETALHEFKKYHSIEAKGYDETYKKLIMSWYYEGYYTGLAEGLAKSEQRKD
chain 2: RKLEIEAGKKSFDPFLRYLLNIIDKEGERLEQYMESSSLDASILPKNLQQWRVYIEHKAPCWAILAVVDLATVLEILESLSSWLEKDAIDLQSQWIFCFCYKLPELLNGEDISTLRSVLKSLRSTHTSFPALQMSASALQAVLVYRYGQKDLFQT
notes: Gemin2 of Schizosaccharomyces pombe (SpG2) lacking the N-terminus (ΔN80); also called A134E mutant; source: E. coli BL21(DE3), co-expressed (SpSMNΔ36–119A134E/His6-SpG2ΔN80), purified (Ni-NTA, TEV, dialysis); not shown: His6, N-terminal, cleaved
- stoichiometry N [2]: 2

B4: MBP-Hs-YG-domain^252–284 (wt) (domain or fragment, human, UniProt Q16637 252-284, looked up)
chain: DSLDDADALGSMLISWYMSGYHTGYYMGFRQNQ
notes: human SMN, YG-domain, residues 252-284; vector pETM-41; also called MBP fusion of human YG-box^252–284; wild-type construct; source: E. coli BL21(DE3), purified; immobilized on Amylose resin for the pull-down
- binding result [4]: binds

B5: MBP-Hs-YG-domain^252–284 H273R (domain or fragment, human, UniProt Q16637 252-284, looked up)
chain: DSLDDADALGSMLISWYMSGYRTGYYMGFRQNQ
notes: human SMN, YG-domain, residues 252-284, SMA-causing missense mutation H273R; source: E. coli BL21(DE3), purified; immobilized on Amylose resin for the pull-down
- binding result [4]: binds

B6: HsG8^190–230 (domain or fragment, human, UniProt Q9NWZ8 190-230, looked up)
chain: TERPGERRQAEMKRLYGDSAAKIQAMEAAVQLSFDKHCDRK
notes: human Gemin8, residues 190-230 (also printed as 191-230; residues 191-227 in the model); also called HsG8^191–230; human Gemin8 C-terminus; source: E. coli BL21(DE3), purified (Glutathione Sepharose, PreScission); not shown: His6, N-terminal, cleaved; GST, N-terminal, cleaved
- binding result [5]: binds
